Literature values, collected in article PMC10552185.

Target: RegA (Dictyostelium discoideum) (UniProt Q23917)
Sequence (Q23917 whole entry): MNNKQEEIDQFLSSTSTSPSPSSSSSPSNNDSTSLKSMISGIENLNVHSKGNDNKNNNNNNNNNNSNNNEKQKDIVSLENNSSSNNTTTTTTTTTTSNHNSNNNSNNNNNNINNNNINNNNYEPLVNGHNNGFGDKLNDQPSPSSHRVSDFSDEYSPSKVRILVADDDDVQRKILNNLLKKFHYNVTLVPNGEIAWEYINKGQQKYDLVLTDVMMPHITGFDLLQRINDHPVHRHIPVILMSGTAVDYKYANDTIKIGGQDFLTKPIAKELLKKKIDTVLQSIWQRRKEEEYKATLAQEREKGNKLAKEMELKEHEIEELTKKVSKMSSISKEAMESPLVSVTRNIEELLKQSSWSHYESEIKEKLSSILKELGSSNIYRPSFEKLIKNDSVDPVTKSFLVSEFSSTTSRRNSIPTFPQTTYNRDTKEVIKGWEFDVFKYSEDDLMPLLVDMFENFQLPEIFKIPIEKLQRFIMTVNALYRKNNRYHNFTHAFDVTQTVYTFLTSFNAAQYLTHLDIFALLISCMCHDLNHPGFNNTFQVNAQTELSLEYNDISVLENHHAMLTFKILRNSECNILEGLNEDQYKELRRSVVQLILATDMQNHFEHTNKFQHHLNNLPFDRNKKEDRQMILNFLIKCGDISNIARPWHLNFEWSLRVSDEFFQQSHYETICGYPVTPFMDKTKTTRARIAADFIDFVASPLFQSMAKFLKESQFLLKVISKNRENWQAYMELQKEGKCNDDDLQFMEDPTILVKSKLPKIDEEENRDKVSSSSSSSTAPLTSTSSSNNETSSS

Kd: 100 nM
Substance: PKA RIα (from UniProt P10644)
